44 molecules from patent US20210380703A1 can be followed below.

B1: 372_A09 (antibody, V domains shown)
VH: EVQLLESGGGLVQPGGSLRLSCAASGFTFDSYGMNWVRQAPGKGLEWVSGINYNGGYTSYADSVKGRFTISRDNSKNTLYLQMNSLRAEDTAVYYCARAANWHDTALDYWGQGTLVTVSS
VL: DIQMTQSPSSLSASVGDRVTITCRASQSILSYLNWYQQKPGKAPKLVIYAATSRASGVPSRFSGSGSGTDFTLTISSLQPEDFATYYCQQSYNSPLTFGGGTKVEIK
B2: 365_H04 (antibody, V domains shown)
VH: B1 VH with D30S, S31D, G55S, T58K, A99S, N101T, A106H
VL: B1 VL with S31T, L33V, N93E
B3: 374_G02 (antibody, V domains shown)
VH: B1 VH with G33S, G55S, A99S, N101T, A106H
VL: B1 VL with S31T, V47L, T52S, R54L, A55Q, N93D, S94T
B4: 365_D04 (antibody, V domains shown)
VH: B1 VH with D30S, S31D, N35H, S49A, T58K
VL: B1 VL with L30S, A51V, N93D, S94L
B5: 369_D06 (antibody, V domains shown)
VH: B1 VH with G33S, S59G, A99S, N101T, A106H
VL: B1 VL with S31T, V47L, N93E, S94T
B6: 369_E04 (antibody, V domains shown)
VH: B1 VH with D30S, S31D, G33S, G55S, T58K, A99S, N101T, A106H
VL: B1 VL with L33V, N93S, S94L
B7: 374_E04 (antibody, V domains shown)
VH: B1 VH with D30S, G33S, G55S, T58K, A99S, N101T, A106H
VL: B1 VL with V47L, A51V, S94N
B8: 367_E10 (antibody, V domains shown)
VH: B1 VH with D30S, N35H, G50S, S59G, N101T, A106H
VL: B1 VL with L33V, V47L, N93E, S94L
B9: 374_F03 (antibody, V domains shown)
VH: B1 VH with D30S, S49A, G50S, A106H
VL: B1 VL with L30I, L33V, N93D, S94T
B10: 365_D08 (antibody, V domains shown)
VH: B1 VH with G33S, N35H, G50S, N101T, A106H
VL: B1 VL with L30I, S31T, L33V, V47L, N93D, S94T
B11: 365_F10 (antibody, V domains shown)
VH: B1 VH with S31D, N35H, N101T, A106H
VL: B1 VL with L30V, S31T, L33V, V47L, N93E, S94L
B12: 366_H01 (antibody, V domains shown)
VH: B1 VH with S31D, G33S, N35H, S49A, G50N, N101T, A106H
VL: B1 VL with S31T, A51T, A55H, N93E
B13: 367_C06 (antibody, V domains shown)
VH: B1 VH with G33S, N35H, S49A, G50S, T58K, N101T, A106H
VL: B1 VL with S31T, R54L, A55H, N93D, S94T
B14: 365_D03 (antibody, V domains shown)
VH: B1 VH with S31D, G33S, N35H, S49A, G50S, T58K, N101T, A106H
VL: B1 VL with L30V, N93D
B15: 365_C06 (antibody, V domains shown)
VH: B1 VH with D30S, S31D, N35H
VL: B1 VL with L30S, S31T, L33V, V47L, A51V, R54L, N93D, S94N
B16: 366_B09 (antibody, V domains shown)
VH: B1 VH with D30S, S31D, N35H, G50S, G55S, T58K, N101T, A106H
VL: B1 VL with S31T, A55H, N93D
B17: 375_A04 (antibody, V domains shown)
VH: B1 VH with S49A, T58K
VL: B1 VL with S31T, A50Y, A51V, T52N, S53N, R54L, A55P
B18: 365_B12 (antibody, V domains shown)
VH: B1 VH with D30S, S31D, N35H, N101T, A106H
VL: B1 VL with L30S, S31T, L33V, V47L, A51V, R54L, A55H, N93D, S94N
B19: 367_C12 (antibody, V domains shown)
VH: B1 VH with D30S, N35H, N101T, A106H
VL: B1 VL with L33V, V47L, A51T, A55H, N93E
B20: 376_G02 (antibody, V domains shown)
VH: B1 VH with D30S, S31D
VL: B1 VL with L30S, S31R, R54L, N93D, S94N
B21: 376_G01 (antibody, V domains shown)
VH: B1 VH with S31D, G33S, G55S, T58K, A99S, N101T, A106H
VL: B1 VL with L33V, A51V, N93E, S94L
B22: 375_F12 (antibody, V domains shown)
VH: B1 VH with N35H, S49A, G50S
VL: B1 VL with S31T, Y92D, N93E, S94L
B23: 373_E11 (antibody, V domains shown)
VH: B1 VH with N35H, S49A, G50S
VL: B1 VL with L30V, N93D
B24: 372_E02 (antibody, V domains shown)
VH: B1 VH with D30S, S49A, G50S
VL: B1 VL with L30I, L33V, N93D, S94L
B25: 376_G11 (antibody, V domains shown)
VH: B1 VH with D30S, G33S, G55S, T58K, A99S, N101T, A106H
VL: B1 VL with L30V, S31T, L33V, R54L, S94L
B26: 373_F02 (antibody, V domains shown)
VH: B1 VH with G33S, G55S, T58K, A99S, N101T, A106H
VL: B1 VL with S31T, V47L, N93D, S94T
B27: 369_A01 (antibody, V domains shown)
VH: B1 VH with G33S, G55S, T58K, S59G, A99S, N101T, A106H
VL: B1 VL with S31T, L33V, R54L, N93E, S94L
B28: 365_E08 (antibody, V domains shown)
VH: B1 VH with G33S, G55S, A99S, N101T, A106H
VL: B1 VL with L30I, L33V, R54L, N93D, S94L
B29: 366_G02 (antibody, V domains shown)
VH: B1 VH with N35H, G50S, N101T, A106H
VL: B1 VL with S31T, V47L, A55H, Y92D, N93D, S94N
B30: 374_B02 (antibody, V domains shown)
VH: B1 VH with G33S, N35H, S49A, G55S, A106H
VL: B1 VL with L30I, V47L, N93D
B31: 366_C05 (antibody, V domains shown)
VH: B1 VH with S31D, N35H, G50S, S59G, N101T, A106H
VL: B1 VL with L30I, N93D
B32: 375_B10 (antibody, V domains shown)
VH: B1 VH with G33S, G55S, A99S, N101T, A106H
VL: B1 VL with V47L, A55H, N93D, S94L
B33: 365_G06 (antibody, V domains shown)
VH: B1 VH with N35H, S49A, N101T, A106H
VL: B1 VL with V47L, R54L, Y92D, N93S, S94T
B34: 375_A11 (antibody, V domains shown)
VH: B1 VH with D30S, S31D, N35H, G50S, G55S, T58K
VL: B1 VL with L30V, V47L, A50Y, A51V, S53N, R54L, N93D, S94N
B35: 373_H12 (antibody, V domains shown)
VH: B1 VH with D30S, S31D, G33S, G55S, T58K, S59G, A99S, N101T, A106H
VL: B1 VL with S31T, V47L
B36: 372_B11 (antibody, V domains shown)
VH: B1 VH with D30S, G33S, N35H, S49A, G55S, A106H
VL: B1 VL with S31T, L33V, R54L, N93D, S94T
B37: 376_E09 (antibody, V domains shown)
VH: B1 VH with G33S, G55S, T58K, A99S, N101T, A106H
VL: B1 VL with S31T, V47L, A55H, N93D, S94T
B38: 375_H01 (antibody, V domains shown)
VH: B1 VH with D30S, S31D, G33S, S49A, G55S, A106H
VL: B1 VL with S31T, V47L, A55H, N93S, S94N
B39: 366_E07 (antibody, V domains shown)
VH: B1 VH with N35H, S49A, N101T
VL: B1 VL with S31T, A55H, Y92D
B40: 373_E08 (antibody, V domains shown)
VH: B1 VH with G55S, A99S, N101T, A106H
VL: B1 VL with L30V, L33V, V47L, A51V, N93E
B41: 367_A11 (antibody, V domains shown)
VH: B1 VH with D30S, N35H, A99S, N101T, A106H
VL: B1 VL with L33V, A51T, R54L
B42: 369_F04 (antibody, V domains shown)
VH: B1 VH with D30S, A99S, N101T, A106H
VL: B1 VL with L30I, L33V, V47L, A55H, N93D, S94N
B43: 374_B11 (antibody, V domains shown)
VH: B1 VH with D30S, G33S, G55S, T58K, A99S, N101T, A106H
VL: B1 VL with S31T, L33V, N93D, S94L
B44: 376_C07 (antibody, V domains shown)
VH: B1 VH with D30S, G33S, G55S, T58K, S59G, A99S, N101T, A106H
VL: B1 VL with L33V, V47L, A55H, N93D, S94L

Positions count from the first letter of the chain named.

For the assay, the target named is human Fc (human). Nature of the assay: ELISA, negative control. (An ELISA detects its analyte on a solid surface through an enzyme-linked reagent.)
B1: the optical density amounted to 0.31 OD.
The value for B2 was 0.371 OD; that for B3 was 0.175 OD; that for B4 was 0.316 OD.
The value for B5 was 0.324 OD; that for B6 was 0.387 OD.
The same measure for B7: 0.169 OD; for B8: 0.271 OD.
Molecule B9 gave an optical density of 0.185 OD.
As to B10, the optical density was determined as 0.35 OD.
Take B11: the optical density is 0.386 OD.
The value for B12 was 0.384 OD; that for B13 was 0.29 OD; that for B14 was 0.346 OD.
Turning to B15, the optical density was found to be 0.318 OD.
B16 registered an optical density of 0.283 OD.
The value for B17 was 0.177 OD.
B18 returned an optical density of 0.307 OD.
The value for B19 was 0.31 OD.
The same measure for B20: 0.285 OD; for B21: 0.227 OD.
B22 returned an optical density of 0.175 OD.
Regarding B23, the optical density was 0.243 OD.
The value for B24 was 0.431 OD.
The same measure for B25: 0.285 OD.
The value for B26 was 0.175 OD; that for B27 was 0.456 OD; that for B28 was 0.298 OD.
B29 came in with an optical density of 0.357 OD.
The value for B30 was 0.179 OD; that for B31 was 0.269 OD.
The same measure for B32: 0.17 OD; for B33: 0.32 OD.
The molecule B34 came in with an optical density of 0.176 OD.
With B35, the optical density worked out at 0.162 OD.
In turn, B36 had an optical density of 0.438 OD.
The same measure for B37: 0.246 OD; for B38: 0.216 OD.
Turning to B39, the optical density worked out at 0.262 OD.
For B40, the optical density was 0.165 OD.
B41 returned an optical density of 0.3 OD.
The same measure for B42: 0.369 OD; for B43: 0.17 OD; for B44: 0.265 OD.
